According to the nanobody polyreactivity screen of Harvey et al. (2022):

Assay: yeast display, Sf9 membrane polyspecificity reagent, FACS + sequencing; frameworks hold sequencing errors
Procedure, shortened: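 A nanobody's polyreactivity label depends on the gate it was sorted from. Yeast display cells were stained with 10% biotinylated, detergent-solubilized Sf9 membrane reagent for 1 hour at 4 °C, enriched on streptavidin microbeads and sorted by FACS. The low and high (top ~1%) gates were set on anti-HA fluorescence for expression and streptavidin fluorescence for reagent binding.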

## QVQLVESGGGLVQAGGSLRLSCAASGFTFYRNAMGWYRQAPGKERELVARIRGTGGRTYYADSVKGRFTISRDNAKNTVYLQMNSLKPEDTAVYYCNVGRGYSFANGDYWGQGTQVTVSS
  polyreactivity (PSR sort gate): high polyreactivity

## QVQLVESGGGLVQAGGSLRLSCAASGSIFTFYAMGWYRQAPGKERELVAAITTIGGRTYYADSVKGRFTISRDNAKNTVYLQMNSLKPEDTAVYYCAAGYRAWEPYGHYGYWGQGTQVTVSS
  polyreactivity (PSR sort gate): high polyreactivity

## QVQLVESGGGLVQAGGSLRLSCAASGRIFYRNAMGWYRQAPGKERELVAAISSSTGSTYYADSVKGRFTISRDNAKNTVYLQMNSLKPEDTAVYYCNTARNRARYYYWGQGTQVTVSS
  polyreactivity (PSR sort gate): high polyreactivity

## QVQLVESGGGLVQAGGSLRLSCAASGFTFYYYAMGWYRQAPGKERELVAAINGGSSTNYADSVKGRFTISRDNAKNTVYLQMNSLKPDDTAVYYCAAETRFYRNIDKIYFVLDRVDYWGQGTQVTVSS
  polyreactivity (PSR sort gate): low polyreactivity

## QVQLVESGGGLVQAGGSLRLSCAASGSTFWANAMGWYRPAPGKERELLAGITWNAGSTYYADSVKGRYTISRDNAKNNVYLQLNSLKPEDTAVYYCAAYYHFQGWGPGYNSCGQGTQVTVSS
  polyreactivity (PSR sort gate): low polyreactivity

## QVQLVDSGGGLGQAVGILRLSCAASGNIFLYYAMGWYRQAPGKEREMVAAISWSGSSTYYADSVKGRFTISRYNAKNTVYLQMNSLKPEVTAVYYCNATTSSKDAFCFILVFGQGDYWGQGTQVSVSS
  polyreactivity (PSR sort gate): low polyreactivity

## QDHLVESGVGLVQAGGSLRLSCAASGFAFWTYTMGWYRQAPGKERELVATITRGGRTKYADSVKGRFTISRDNAKNTVYLQMNSLKPEDTAVYYCAAARRRTGVRMDYWGLGTQVTVSS
  polyreactivity (PSR sort gate): high polyreactivity

## QVQLVESGGGLVQAGGSLRLSCDASGIFVGYTLGWYRQAPRKERELVAAIRWTDGSTYYADSVKGRFTISRDNAKNTVYLQRNSLNPEDTAVYDCGADSNDPARYYYGDEFEDEYWGQGTQVTVSS
  polyreactivity (PSR sort gate): low polyreactivity

## QVQLVESGGGLVQAGGSLRLSCAASGSIFVPYAMGWYRQAPGKERELVAAISSSTASTYYADSVKARFTISRDYAKNTVYFQMNCLKPEDTAVYYCNAEQWDYGVRVAHYDYWGQGTQVTVSS
  polyreactivity (PSR sort gate): low polyreactivity

## QVQLVESGVGLVQAGGSLRLSCAASGRIFYNNVRGWYRQAPGKERELVAGISGNGGSTYYPDSVKGRFTISRDNAKNTVYLQMNSPKPEDTAVYYCAARSSFRTLIFYQKFDYWGQGTQVTVSS
  polyreactivity (PSR sort gate): low polyreactivity

## QVQLVESGGGLVQAGGSLRLSCAATGRIFIAYAMGWYRQAPGKEREFVAAISSGGGSTYYADSVKGRFTISRDNAKNTVYLQMNSLKPEDTAVYYCGAWTLYWSHTTWSYDYWGQGTQGTVSS
  polyreactivity (PSR sort gate): low polyreactivity

## QVQLVESWGGLVQAGLSLRLSCAASGIMGWYRQAPGKERELVDAITYTGDSTFYADSVKGRFTISRDNPKNTVYVQINSLKAEDTAVYDCATKYGTSNWYNTYYYWGQGTQVTVSS
  polyreactivity (PSR sort gate): low polyreactivity

## QVQLVESGGGLVQAGGSLRLSCAASGLTFGGNAMGWYRPAPGKERELVAAISWSDHTTDYADSVKGRFTISRDKSKNSVYFQMKRLKPEDTAVYYCAARLPFEHVDYWGQGTQVTVSS
  polyreactivity (PSR sort gate): low polyreactivity

## QVQLVESGGGLVQAGGSLRLSCADSGFTFWYYDMGWYRQAPGKERELVAAITNGGRTYYADSVKGRFTISRDNAKNTVYLQMNSLKPEDTAVYYCAVLGGHGFYQGDYWGQGTQVTVSS
  polyreactivity (PSR sort gate): high polyreactivity

## QVQLVESGGGLVQAGGSLRLSCAASGRTFYYYAMGWYRQAPGKERELVAGINSGGSTNYADSVKGRFTISRDNAKNTVYLQMNSLKPEDTAVYYCAVEDLVSEGWGWYKEMDYWGQGTQVTVSS
  polyreactivity (PSR sort gate): low polyreactivity

## QVQLQETRGGLDQAGDSLRLRCAASVSTLPVYTIARYRKAAVKEREFVAANTYTGGRTYYSDSVKGRFTISRDNAKNSVYLQMKSLKPDDTAVYYCAAEYGTYFVRYFAGASYRYGYWGQGTQVTVSS
  polyreactivity (PSR sort gate): low polyreactivity

## QVQLVESGGGLVQAGGSLRLSCAASGRIFHWYVMGWYRQAPGKERELVAAISWSSGSTYADSVKGRFTISRDNAKNTVYLQMNSLKPEDTAVYYCNAKTYYPPFGYWGQGTQVTVSS
  polyreactivity (PSR sort gate): low polyreactivity

## QVQLVESGGGLVQAGGSLRLRCAASGRTFKVYAMGWYRQAPGKERELVAAISYSGAGTRYADSVKGRFTISRDNAKNTVYLQMNSLKPEDTAVYYCNTDAWARVKRYEYWGQGTQVTVSS
  polyreactivity (PSR sort gate): low polyreactivity

## QVQLVESGGGLVQAGGSLRLSCAASGRTFWYYDMGWYRQAPGKERELVATINNVGSTHYADSVKGRFTISRDNAKNTVYLQMNSLKPEDTAVYYCARASYGKMDYWGQGTQVTVSS
  polyreactivity (PSR sort gate): high polyreactivity

## QVQLVESGGGIVQAGGSLRLSCAASGFTFAYYAMGWYRQAPGKERELVAAITRGGGRTFYADSVKGRFTISRDNAKNTVYLQMNSLKPEDTAVYYCAAVKDTTNSRGYGYWGQGTHVTVSS
  polyreactivity (PSR sort gate): high polyreactivity

## QVQLVESGGGLVQAGGSLRLSCAASGRIFILYAMGWYRQAPAKERALVAAISSGGGRTYYADSVKGRFTISRDNAKNTVYLQMNSLKPEDTAVYYCATRRRRTSQRQGYDYWGQGTQVTVSS
  polyreactivity (PSR sort gate): high polyreactivity

## QVQLVESGGGLLQAGGSLRLSCAASGSTFVYYAMGWYRQAPGKERELVAAISRSGGNTYYADSVKGRITISRDNAKNTVYLQRNSLKPEDTAVYYSAARSYGVQYYYWGQGTKVTVSS
  polyreactivity (PSR sort gate): high polyreactivity

## QVQLVESGGGLVQAGGSLRLSCAASGFIFVEYAMGWYRQAPGKERELVAAISGRDGSTYYADSVKGRFTISRDNAKNTVYLQMNSLKPEDTAVYYCAADRIHSVTRYDYDYWGQGTQVTVSS
  polyreactivity (PSR sort gate): low polyreactivity

## QVQLVESGGGLVQAGGSLRLSCAASGFIFRAYAMGWYRQAPGKERELVAAITKRSGTTYYADSVKGRFTISRDNAKNTVYLQMHSLKPEDTAVYYCAARYYRDYRWYTYAYDYWGQGTQVTVSS
  polyreactivity (PSR sort gate): high polyreactivity

## QVQLVESGGGLVQAGGSLRLSCAASGLIFRTYTMGWNRQAPGKERELVAVISTSGGTTYYADSVKGRFTISRDNAKNTVYLQMNSLKPEDTAVYYCAKRYYWKYAEYDYWGQGSQVTVSS
  polyreactivity (PSR sort gate): high polyreactivity

## QVQLVESGGGLVQAGGSLRLSCAASGSTFYLNAMGWYRQAPGKERELVASITWSGGRTYYADSVKGRFTISRDNAKNTVYLQMNSLKPEDTAVYYCAADPVWGRYIKYDYWGQGTQVTVSS
  polyreactivity (PSR sort gate): high polyreactivity

## QVQLVESGGGLVQAGGSLRLSCAASGFIFVRNTRGWYRQAPGKERELVATITRRGGSTSYADSVKGRFTISRDNAKNTVYLQMNSLKPEDTAVYYCNARSVYGSKQEEYWGQGTQVTVSS
  polyreactivity (PSR sort gate): high polyreactivity

## QVQLVESGGGLVQAGGSLRLSCAASGRTFGYNAMGWYRQAPGKERELVAAITYSGGRTSYADSVKGRFTISRDNAKNTVYLQMNSLKPEDTAFYYCAAQPRYYSGYNYWGQGTQVTVSS
  polyreactivity (PSR sort gate): high polyreactivity

## QVQLVESGGGLVQAGGSLRLSCAASGFTFRYYAMGWYRKAPGKERELVAAITRRGGSKYYADSVKGRFTISRDNAKNTVYLQMNSLKPEDTAVYDCAASLWTTSADYDYWGQGTQVTVSS
  polyreactivity (PSR sort gate): high polyreactivity

## QVQLVESGGGLVQAGGSLRLSCAASGRTFDRDAKGWYRQAPGKERELVAVIRFIGGSTYYAYSVKGRFTISRDNAKNTVFLQMNSLKQEDTAVYDCATRGPIWGQRYYKGYYWGQGTQVTVSS
  polyreactivity (PSR sort gate): low polyreactivity

## QVQLVESGGGLVQEGGSLRLSCAASGRTFAHYAMGWYKQAPGKERELVAAISWSGGSTYYADSVKGRFTISRDNPKNTVYLQMNILKPEDTGVYYCNTLGGTEYGYWGPGTQVTVSS
  polyreactivity (PSR sort gate): high polyreactivity
